This note sets out measurements from article PMC11985770, “The SlERF4-9-SlCDF1/3-SlAEC2/SlPIN5 module regulates tomato root morphogenesis”.

For this data set, the target named is SlERF4-9-GST (Solanum lycopersicum (tomato), UniProt A0A3Q7G811 1-264). As to the kind of experiment: EMSA; Beyotime Chemiluminescent EMSA Kit; 100x cold probe as competitor; buffer, salt, pH and temperature not stated. To be noted: protein: recombinant; tags: GST (pGEX6P-1); label: biotin on both strands (3' end); blunt.
SlERF4-9-GST, sequence (A0A3Q7G811 entry or part of it): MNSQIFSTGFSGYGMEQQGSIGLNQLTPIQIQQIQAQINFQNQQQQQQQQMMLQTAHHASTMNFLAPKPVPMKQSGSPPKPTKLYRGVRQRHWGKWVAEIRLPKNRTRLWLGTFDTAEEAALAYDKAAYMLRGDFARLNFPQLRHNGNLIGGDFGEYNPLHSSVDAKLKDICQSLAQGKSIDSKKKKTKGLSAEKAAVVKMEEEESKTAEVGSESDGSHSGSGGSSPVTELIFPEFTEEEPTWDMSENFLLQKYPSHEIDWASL

B1: proCDF3 probe (P2 site) (dsDNA)
DNA 1: CGTCAACTCGCCGGCGGCGACTTCGTCGGA
DNA 2: TCCGACGAAGTCGCCGCCGGCGAGTTGACG
With B1, the binding result is reported as “binds”.

B2: proCDF1 probe (P1 site) (dsDNA)
DNA 1: ACGACGTTGGCCGGCGGCGGCGAATTCACGGCGGCTAAACGAGTTTT
DNA 2: AAAACTCGTTTAGCCGCCGTGAATTCGCCGCCGCCGGCCAACGTCGT
With B2, the binding result was “binds”.
